# Test results as given in patent US11912789B2, “Peptide activating agent” (Interk Peptide Therapeutics Limited, priority 2018, dated 2024).
# Non-standard residues stand in square brackets, D forms with d. Residues, ends and D or L forms follow the SMILES beside them. No end group written: not given here. ξ: configuration not given here. ξGly(decyl) = CCCCCCCCCCC(N)C(=O)O; 2Adod = 2-amino-dodecanoic acid
# How the values were obtained:
# Lck = target: T1, Lck (Homo sapiens, UniProt P06239); test: In vitro Lck activation kinase study (Eurofins); format: biochemical
# T1 construct: purchased Eurofins Pharma Discovery Services UK Limited
# Experimental: (§1) The ability of polypeptides of the present invention to activate Lck was examined in vitro. Lck is member of the Src family of tyrosine kinases. In vitro Lck activation kinase studies were conducted by Eurofins Pharma Discovery Services UK Limited (Dundee Technology Park, Dundee, United Kingdom) using ATP concentrations within 15 μM of the apparent Km in the presence of peptide substrate (KVEKIGEGTYGVVYK; (SEQ ID NO: 63)) and test polypeptide in semi-log dose ranges. All results in Examples X percentage Lck activity relative to control (100%).
# (§2) The ability of polypeptides of the present invention to activate Src family kinases was examined in vitro. Lck activation studies were carried out as described above and all Lck activity values are shown as percentage relative to control. In brief, Table 4 and Table 5 illustrate the selective activation of Lck kinase amongst the Src family kinases in the presence of the peptide RSKAKNPLY at 10 μM concentration.
# The effect of modification of cationic amino acid positions and substitutions of the peptide RSKAKNPLY was examined. In brief, peptides with amino acid sequence changes compared to the peptide Pep9 (RSKAKNPLY) were assessed for the ability to stimulate Lck activity. All results are shown as percentage relative to control (100%).
# Lck activity was evaluated as described in Example 1 and all Lck activity values are shown as percentage relative to control (100%). For ease of description, the polyamide moiety is referred to by “nCy” wherein n is the number of repeating units of the polyamide moiety, Cy is the number of carbon atoms of the R group in each repeating unit, and each R group is a saturated, linear carbon chain. Thus, in the present example, “4C10” is to be taken to refer to a polyamide moiety as shown in Scheme 1 above which has 4 repeating units (n=4) in which the R group of each repeating unit is a saturated, carbon side chain that is 10 carbon atoms in length (e.g. four 2-amino dodecanoic acids).
# Lck(h) = target: T2, Lck(h) (Homo sapiens, UniProt P06239); test: Western blot of Lck auto-phosphorylation at Y394 (anti-pY394 Lck); format: biochemical; details: 10 μM and 30 μM; ATP, no peptide substrate; FIG. 2
# T2 construct: purchased Eurofins Pharma Discovery Services UK Limited
# Experimental: Western blot studies were performed by Eurofins Pharma Discovery Services UK Limited (Dundee, United Kingdom). In brief, Lck(h) was incubated in the presence of test peptide employing standard KinaseProfiler™ reaction conditions (Eurofins Pharma Discovery Services UK Limited) and an ATP concentration within 15 μM of the Km. Reactions were allowed to proceed for 40 minutes at room temperature before being stopped by the addition of SDS-sample buffer. In each case the Lck enzyme was diluted to yield 20 ng per 25 μl reaction. Appropriate controls in the absence of compound and peptide were also run as well as an untreated sample of both the Lck(h) and Lck(h) activated kinases. The resulting samples were then subjected to SDS-PAGE and western blot analysis using the antibodies 4G10 (anti-phospho-tyrosine antibody) (see FIG. 3) and anti-pY394 Lck (R&D Systems MAB7500) (see FIG. 2). An additional blot using the secondary detection antibody (anti-mouse-HRP) was also performed. The membranes were stained by Ponceau S to verify sample loading and effective protein transfer. The 4G10 antibody is a general anti-phospho-tyrosine antibody and there are several tyrosine residues in Lck but only one auto-phosphorylating tyrosine residue, i.e., at position Y394. […] Samples were as follows (numbers correspond to the lanes on the gel): • 1. Molecular weight markers • 2. […]
# wild-type Jurkat cells = test: IL-2, IL-12 secretion and IL-2Ra expression in Jurkat cells (anti-CD3/anti-CD28), ELISA; format: cell-based, human; details: 48 hours; for IL-2 secretion: Biotin-CD3, CD28 and avidin stimulation, supernatant ELISA, FIG. 14, FIG. 42A; for IL-12 secretion: Biotin-anti-CD3, anti-CD28 and avidin, FIG. 42B
# Experimental: Cells were seeded at 1 million per well (12 well plate, 2 mL volume) and stimulated with Biotin-CD3, CD28, and avidin (5:5:1.25 μg). The cells were then treated with RSKAKNPLYR-(2Adod)4-NH2 at three concentrations as indicated plus vehicle control. The samples were then incubated for 48 hours at 37° C. after which supernatants were analysed for IL-2 content by ELISA.
# Shown are Jurkat wild type (WT) cells and Lck deficient Jurkat cells (JCaM1.6) stimulated with anti-CD3/anti-CD28. 12 well plates were coated with anti-CD3 (5 μg/mL) solution made up in PBS (200 μL) and incubated at 37° C. overnight. The next day the anti-CD3 solution was aspirated and wells gently washed twice with media (1 mL, 10 minutes). Jurkat cells (WT and Lck Deficient) were seeded at 1 million per well in anti-CD3 coated 12 well plates, further stimulated with anti-CD28 (5 ug/mL) and at time zero treated with RSKAKNPLYR-(2Adod)4-NH2 (2.5 μM). Cells were incubated for 72 hours. For the IL-2 assay, left, supernatants were analysed for IL-2 content by ELISA. For the IL-2Ra assay, right, cells were lysed with 100 μL of lysis solution containing protease and phosphatase inhibitors as well as PP2 (10 μM). The collected cell lysates were subjected to the BCA protein assay. Cell lysates (40 μg protein) were then analysed for IL-2Ra by ELISA.
# In two separate experiments, 5 million unstimulated JCam1.6 (Lck deficient) and 5 million 6.1 (WT) Jurkat cells, respectively, were seeded in T25 flasks. The cells were treated with RSKAKNPLYR-(2Adod)4-NH2 at 5 μM, 10 μM and 20 μM concentrations for 1 hour after which the cell suspensions were centrifuged and washed twice with fresh media. For each experiment, a mixture of Biotin-anti-CD3 and Avidin (5:1.25 ug) in 500 μL of media was added to the wells of a 12 well plate. After 10 minutes the unstimulated, washed cells were seeded at 1 million cells per well and the cell suspension made up to 2 mL volume with media. The samples were then further stimulated with anti-CD28 (5 ug/mL), after which the samples were incubated for 48 hours at 37° C. The supernatants (100 μL, n=3), were then analyzed for IL-2 content.
# 12 well plates were coated with anti-CD3 (5 μg/mL) solution made up in PBS (200 μL) and incubated at 37° C. overnight. […] Cells were incubated for 24 hours and supernatants were then analysed for IL-2 by ELISA.
# 12 well plates were coated with anti-CD3 (5 μg/mL) solution made up in PBS (200 μL) and incubated at 37° C. overnight. […] Cell lysates (40 μg protein) were then analysed for IL-2Ra by ELISA.
# 12 well plates were coated with anti-CD3 (5 μg/mL) solution made up in PBS (200 μL) and incubated at 37° C. overnight. […] Cells were incubated for 72 hours and the supernatants were then analysed for IL-2 by ELISA. […]
# Blk = target: T3, Blk (Homo sapiens, UniProt P51451); test: In vitro Src family kinase activation study (Eurofins); format: biochemical; details: Table 5
# T3 construct: purchased Eurofins Pharma Discovery Services UK Limited
# Experimental: as §1, §2
# Lyn = target: T4, Lyn (Homo sapiens, UniProt P07948); test: as above; format: biochemical; details: Table 5
# T4 construct: purchased Eurofins Pharma Discovery Services UK Limited
# Experimental: as §1, §2
# Yes = target: T5, Yes (Homo sapiens, UniProt P07947); test: as above; format: biochemical; details: Table 5
# T5 construct: purchased Eurofins Pharma Discovery Services UK Limited
# Experimental: as §1, §2
# cSRC = target: T6, cSRC (Homo sapiens, UniProt P12931); test: as above; format: biochemical; details: Table 5
# T6 construct: purchased Eurofins Pharma Discovery Services UK Limited
# Experimental: as §1, §2
# Fyn = target: T7, Fyn (Homo sapiens, UniProt P06241); test: as above; format: biochemical; details: Table 5
# T7 construct: purchased Eurofins Pharma Discovery Services UK Limited
# Experimental: as §1, §2
# Fgr = target: T8, Fgr (Homo sapiens, UniProt P09769); test: as above; format: biochemical; details: Table 5
# T8 construct: purchased Eurofins Pharma Discovery Services UK Limited
# Experimental: as §1, §2
# Hck = target: T9, Hck (Homo sapiens, UniProt P08631); test: as above; format: biochemical; details: Table 5
# T9 construct: purchased Eurofins Pharma Discovery Services UK Limited
# Experimental: as §1
# The ability of polypeptides of the present invention to activate Src family kinases was examined in vitro. Lck activation studies were carried out as described above and all Lck activity values are shown as percentage relative to control. […]
# T1 sequence (P06239 whole entry): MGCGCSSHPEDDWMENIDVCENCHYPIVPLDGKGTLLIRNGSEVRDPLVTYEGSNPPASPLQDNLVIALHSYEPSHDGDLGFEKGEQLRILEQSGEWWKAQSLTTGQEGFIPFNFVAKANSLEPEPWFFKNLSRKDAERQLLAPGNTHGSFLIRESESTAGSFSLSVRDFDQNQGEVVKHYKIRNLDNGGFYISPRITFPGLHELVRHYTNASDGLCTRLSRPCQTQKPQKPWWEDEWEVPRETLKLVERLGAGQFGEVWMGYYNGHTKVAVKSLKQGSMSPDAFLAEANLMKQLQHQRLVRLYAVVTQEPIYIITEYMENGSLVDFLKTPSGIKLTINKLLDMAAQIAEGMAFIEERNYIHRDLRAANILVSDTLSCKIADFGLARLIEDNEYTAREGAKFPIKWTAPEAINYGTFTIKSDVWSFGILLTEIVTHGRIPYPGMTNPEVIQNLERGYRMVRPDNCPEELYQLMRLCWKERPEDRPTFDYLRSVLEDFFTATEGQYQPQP
# T3 sequence (P51451 whole entry, species assumed): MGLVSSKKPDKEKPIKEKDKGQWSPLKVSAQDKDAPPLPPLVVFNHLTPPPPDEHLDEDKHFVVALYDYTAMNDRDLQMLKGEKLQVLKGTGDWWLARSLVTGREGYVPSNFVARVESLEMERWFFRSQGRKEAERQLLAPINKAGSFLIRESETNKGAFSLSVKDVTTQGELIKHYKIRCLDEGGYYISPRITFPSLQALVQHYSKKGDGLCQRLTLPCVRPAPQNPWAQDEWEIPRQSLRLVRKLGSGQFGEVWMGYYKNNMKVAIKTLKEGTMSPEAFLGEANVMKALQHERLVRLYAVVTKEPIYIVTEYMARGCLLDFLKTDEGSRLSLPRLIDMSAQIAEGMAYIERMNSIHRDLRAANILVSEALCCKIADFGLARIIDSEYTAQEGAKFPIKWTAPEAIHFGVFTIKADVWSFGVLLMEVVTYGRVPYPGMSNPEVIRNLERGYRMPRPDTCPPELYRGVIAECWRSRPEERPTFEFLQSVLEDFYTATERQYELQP
# T7 sequence (P06241 whole entry, species assumed): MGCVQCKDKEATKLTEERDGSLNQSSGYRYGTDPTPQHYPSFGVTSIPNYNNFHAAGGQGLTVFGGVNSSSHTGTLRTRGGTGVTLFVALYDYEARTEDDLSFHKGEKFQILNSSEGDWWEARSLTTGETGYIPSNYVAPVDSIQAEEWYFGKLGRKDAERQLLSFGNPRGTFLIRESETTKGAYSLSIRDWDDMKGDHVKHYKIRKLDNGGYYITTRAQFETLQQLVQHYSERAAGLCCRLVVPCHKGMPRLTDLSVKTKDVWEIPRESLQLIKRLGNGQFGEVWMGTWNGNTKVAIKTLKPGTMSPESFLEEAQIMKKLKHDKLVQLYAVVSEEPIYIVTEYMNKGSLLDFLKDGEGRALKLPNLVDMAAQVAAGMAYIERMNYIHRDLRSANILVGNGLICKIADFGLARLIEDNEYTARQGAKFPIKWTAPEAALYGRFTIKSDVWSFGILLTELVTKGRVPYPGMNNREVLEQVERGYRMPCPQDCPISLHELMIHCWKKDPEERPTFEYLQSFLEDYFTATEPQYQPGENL
# T2 sequence (P06239 whole entry): as the sequence (P06239 whole entry) above
# T9 sequence (P08631 whole entry, species assumed): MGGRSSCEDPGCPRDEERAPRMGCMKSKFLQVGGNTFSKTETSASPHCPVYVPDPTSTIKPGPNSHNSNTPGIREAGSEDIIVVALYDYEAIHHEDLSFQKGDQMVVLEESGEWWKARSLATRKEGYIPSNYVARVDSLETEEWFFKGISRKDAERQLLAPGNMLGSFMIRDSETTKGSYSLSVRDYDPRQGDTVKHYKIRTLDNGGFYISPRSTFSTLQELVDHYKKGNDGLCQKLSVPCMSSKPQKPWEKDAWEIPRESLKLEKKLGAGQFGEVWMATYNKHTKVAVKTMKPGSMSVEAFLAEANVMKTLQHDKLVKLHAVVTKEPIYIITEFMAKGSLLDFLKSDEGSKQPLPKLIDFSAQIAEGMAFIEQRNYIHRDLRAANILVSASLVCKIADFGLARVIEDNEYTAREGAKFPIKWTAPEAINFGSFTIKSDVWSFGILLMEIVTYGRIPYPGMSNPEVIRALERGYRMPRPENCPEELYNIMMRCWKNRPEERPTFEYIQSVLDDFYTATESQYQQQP
# T4 sequence (P07948 whole entry, species assumed): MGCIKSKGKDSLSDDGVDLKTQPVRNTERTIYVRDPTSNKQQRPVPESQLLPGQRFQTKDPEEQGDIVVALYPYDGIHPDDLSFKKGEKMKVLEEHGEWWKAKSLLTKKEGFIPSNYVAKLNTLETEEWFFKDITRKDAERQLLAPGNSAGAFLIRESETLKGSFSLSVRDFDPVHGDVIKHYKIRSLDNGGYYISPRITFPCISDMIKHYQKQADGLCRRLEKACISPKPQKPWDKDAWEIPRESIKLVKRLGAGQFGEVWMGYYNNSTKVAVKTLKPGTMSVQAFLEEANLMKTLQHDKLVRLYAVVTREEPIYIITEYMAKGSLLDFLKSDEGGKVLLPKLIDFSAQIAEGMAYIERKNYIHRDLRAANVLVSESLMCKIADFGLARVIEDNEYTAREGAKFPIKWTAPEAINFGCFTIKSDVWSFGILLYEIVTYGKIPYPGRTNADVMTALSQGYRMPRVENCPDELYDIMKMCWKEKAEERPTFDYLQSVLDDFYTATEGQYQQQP
# T5 sequence (P07947 whole entry, species assumed): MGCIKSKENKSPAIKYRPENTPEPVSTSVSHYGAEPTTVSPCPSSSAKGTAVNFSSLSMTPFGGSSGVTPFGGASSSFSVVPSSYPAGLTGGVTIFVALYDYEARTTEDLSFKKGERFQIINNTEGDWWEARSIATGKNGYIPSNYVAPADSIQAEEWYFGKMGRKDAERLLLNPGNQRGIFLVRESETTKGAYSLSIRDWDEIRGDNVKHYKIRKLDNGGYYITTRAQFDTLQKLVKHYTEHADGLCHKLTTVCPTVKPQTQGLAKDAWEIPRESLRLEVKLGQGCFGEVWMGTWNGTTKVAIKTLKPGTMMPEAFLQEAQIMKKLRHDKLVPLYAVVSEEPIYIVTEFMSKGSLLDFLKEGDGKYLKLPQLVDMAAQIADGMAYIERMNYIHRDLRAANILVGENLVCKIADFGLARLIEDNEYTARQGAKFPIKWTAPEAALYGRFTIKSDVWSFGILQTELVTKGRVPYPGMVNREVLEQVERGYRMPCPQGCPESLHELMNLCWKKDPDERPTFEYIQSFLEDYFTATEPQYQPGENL
compound,measurement,setting,value
"RSKAKNPLYR-(2Adod)4-OH (RSKAKNPLYR-{2Adod-2Adod-2Adod-2Adod-OH}) [… coupled to four 2-amino dodecanoic acid residues, non-amidated]",Lck activation above control (1 μM),Lck; Table 9,252%
same,Lck activation above control (10 μM),"Lck; 10 μM, Table 9",395%
"DSEAENPLYD-(2Adod)4-NH2 (DSEAENPLYD-{2Adod-2Adod-2Adod-2Adod-NH2}) [DSEAENPLYD-(2-Adod)4-NH2, anionic residues at 1, 3, 5, 10 in place of Arg and Lys]",Lck activation (FIG. 30),Lck; cationic versus anionic residues,does not increase the activity of Lck
RSKAKNPLYR,auto-phosphorylation of Lck at Y394,Lck(h),does not increase
same,IL-2 secretion,wild-type Jurkat cells,increase IL-2 secretion
same,IL-12 secretion,wild-type Jurkat cells,not
CCCCCCCCCCC(N)C(=O)NC(CCCCCCCCCC)C(=O)NC(CCCCCCCCCC)C(=O)O (stereo not drawn) [H-(2Adod)3-OH],Lck activation above control (1 μM),Lck; Table 7,0%
same,Lck activation above control (10 μM),"Lck; 10 μM, Table 7",0%
RSKAKNPLY,auto-phosphorylation of Lck at Y394,Lck(h),induces a dose-dependent auto-phosphorylation of Lck
same,IL-2 secretion,wild-type Jurkat cells,increase IL-2 secretion
same,IL-12 secretion,wild-type Jurkat cells,increase IL-12 secretion
CCCCCCCCCCC(N)C(=O)NC(CCCCCCCCCC)C(=O)NC(CCCCCCCCCC)C(=O)NC(CCCCCCCCCC)C(=O)O (stereo not drawn) [H-(2Adod)4-OH] (H-[ξGly(decyl)][ξGly(decyl)][ξGly(decyl)][ξGly(decyl)]-OH),Lck activation above control (1 μM),Lck; Table 7,0%
same,Lck activation above control (10 μM),"Lck; 10 μM, Table 7",0%
RVKVKVVVV,"Lck Activity (1 μM), kinase Blk",Blk; 1 μM,0%
same,"Lck Activity (10 μM), kinase Blk",Blk; 10 μM,0%
same,"Lck Activity (1 μM), kinase Lyn",Lyn; 1 μM,0%
same,"Lck Activity (10 μM), kinase Lyn",Lyn; 10 μM,0%
same,"Lck Activity (1 μM), kinase Yes",Yes; 1 μM,0%
same,"Lck Activity (10 μM), kinase Yes",Yes; 10 μM,0%
same,"Lck Activity (1 μM), kinase c-Src",cSRC; 1 μM,0%
same,"Lck Activity (10 μM), kinase c-Src",cSRC; 10 μM,0%
same,"Lck Activity (1 μM), kinase Fyn",Fyn; 1 μM,0%
same,"Lck Activity (10 μM), kinase Fyn",Fyn; 10 μM,0%
same,"Lck Activity (1 μM), kinase Fgr",Fgr; 1 μM,0%
same,"Lck Activity (10 μM), kinase Fgr",Fgr; 10 μM,0%
same,"Lck Activity (1 μM), kinase Hck",Hck; 1 μM,0%
same,"Lck Activity (10 μM), kinase Hck",Hck; 10 μM,0%
RSKAKNPLYR-1C10-OH (RSKAKNPLYR-{2Adod-OH}) [… coupled at the C-terminal end toone 2-amino dodecanoic acid residue],Lck Activity 10 μM,"Lck; 10 μM, Table 8",221%
same,Lck Activity 30 μM,"Lck; 30 μM, Table 8",277%
CCCCCCCCCCC(N)C(=O)NC(CCCCCCCCCC)C(=O)O (stereo not drawn) [H-(2Adod)2-OH],Lck activation above control (1 μM),Lck; Table 7,0%
same,Lck activation above control (10 μM),"Lck; 10 μM, Table 7",18%
CCCCCCCCCCC(N)C(=O)O (stereo not drawn) [H-(2Adod)1-OH],Lck activation above control (1 μM),Lck; Table 7,0%
same,Lck activation above control (10 μM),"Lck; 10 μM, Table 7",0%
